Where two headings read alike, the source gives them in different places.
B1: S2P6 mAb (antibody, V domains shown)
VH: EVQLVQSGAEVKKPGASVKVSCKASGYTFTSQYMHWVRQAPGQGLEWIGIINPSGVHTSYAQKFQGRVTLTRDTSTSTLYMELSSLRSEDTAVYYCARGSPKGAFDYWGQGTLVTVSS
VL: not shown
B3: CC40.8 mAb (antibody, V domains shown)
VH: EVQLLESGGGLVQPGGSLRLSCAASGFTFSSYVMTWARQAPGKGLEWVSAISGTGYTYYADSVKGRFTVSRDNSKNTLFLQMSSLRAEDTAVYYCAITMAPVVWGQGTTVTVSS
VL: SYELTQPPSVSVSPGQTARITCSGDALPKRYAYWYQQKSGQAPILVIYEDKKRPSGIPERLSGSKSGTVATLTISGAQVEDEADYYCYSTDSSGNHAVFGGGTQLTVL
B6: DH1057.1 mAb (antibody, V domains shown)
VH: EVQLVESGTEVKKPGASVKVSCKTSGYIFTNYYIHWVRQAPGQGLEWMGIFNPNGGGTSYAQKFQGRITLTGNTSANTGYMVLRSLTSEDTAVYYCARDPRTSGDNDGFDMWGQGTKVTVSS
VL: VLTQSPATLSLSPGERATLSCRASQSLSSYNYLAWYQQKPGQAPRLLIYAASKRATGIPARFSGSGSGTDFTLTISSLEPEDFAVYFCQQRSNRPPAWTFGQGTKVEIK

Tests used:
Experiment in all cases: SPR
[1] = molecular target: S2hlx-15 epitope scaffold
[2] = molecular target: S2hlx-4 epitope scaffold
[3] = molecular target: S2hlx-13
[4] = molecular target: S2hlx-14
[5] = molecular target: S2hlx-8
[6] = molecular target: S2hlx-1
[7] = molecular target: S2hlx-Ex15 epitope scaffold
[8] = molecular target: S2hlx-Ex17 epitope scaffold
[9] = molecular target: S2hlx-Ex20 epitope scaffold
[10] = molecular target: B6
[11] = molecular target: B1
[12] = molecular target: B6; remark: listed apart in the source
[13] = molecular target: B1; remark: listed apart in the source
[14] = molecular target: B6; remark: listed apart in the source
[15] = molecular target: B1; remark: listed apart in the source
[16] = molecular target: B3
[17] = molecular target: B6; remark: listed apart in the source
[18] = molecular target: B1; remark: listed apart in the source
[19] = molecular target: DH1057UCA
[20] = molecular target: S2P6iGL
[21] = molecular target: CC40.8iGL
[22] = molecular target: FP-10 epitope scaffold
[23] = molecular target: FP-2 epitope scaffold

Question: Which results are given for B1?
Answer: Kd [1]: 0.7 nM; koff [1]: 0.0018 s⁻¹; Kd [2]: 47.7 nM; koff [2]: 0.00048 s⁻¹; Kd [3]: 83 nM; koff [3]: 0.0017 s⁻¹; Kd [4]: 30 nM; koff [4]: 0.0016 s⁻¹; Kd [5]: 63 nM; koff [5]: 0.00021 s⁻¹; Kd [6]: 52.8 nM; koff [6]: 0.0027 s⁻¹; Kd [7]: 6 nM; koff [7]: 0.0086 s⁻¹; Kd [8]: 29.6 nM; koff [8]: 0.0082 s⁻¹; Kd [9]: 10.7 nM; koff [9]: 0.00042 s⁻¹

B2: S2hlx-7 epitope scaffold (designed binder)
chain: MTSTFDRVATIIAETADIPRETITPESHAIDDLGIDELDFLDIAFAIDKAFGISLPLFKWELDVYFGSATTEQYFVLKNLAARIDELVAAKGA
Question: Which Kd [10] does the source give for B2 here?
Answer: 0.6 nM

Question: And the Kd [11]?
Answer: 0.2 nM

Question: And the koff [12]?
Answer: 0.0026 s⁻¹

Question: What about the koff [13] of the same binder?
Answer: 0.0025 s⁻¹

Question: How did the Kd [7] turn out when B3 was run?
Answer: 3.4 nM

Question: And the koff [7]?
Answer: 0.0085 s⁻¹

Question: And the Kd [8]?
Answer: 27.1 nM

Question: What about the koff [8] of the same binder?
Answer: 0.061 s⁻¹

Question: What about the Kd [9] of the same binder?
Answer: 10.6 nM

Question: And the koff [9]?
Answer: 0.011 s⁻¹

B4: S2hlx-Ex19 epitope scaffold (designed binder)
chain: MNLDSFKEELDDYFKEKIVKEFEKLCKELISKYEVKKPTPSPEIKKICEYLKKKHEELKDKYPEEFVKEIFKKMWEVFKKELSKQLKKLGVTNDGGEKYKIVKEDLNYLVDVIKSLEGLSDLDLNWEEIWN
Question: Which Kd [14] does the source give for B4 here?
Answer: 15.5 nM

Question: And the Kd [15]?
Answer: 1.7 nM

Question: What about the koff [16] of the same binder?
Answer: 0.02 s⁻¹

Question: And the koff [17]?
Answer: 0.027 s⁻¹

Question: What about the koff [18] of the same binder?
Answer: 0.00033 s⁻¹

Question: What about the Kd [19] of the same binder?
Answer: 3080 nM

Question: What about the koff [19] of the same binder?
Answer: 0.0019 s⁻¹

Question: And the Kd [20]?
Answer: 690 nM

Question: What about the koff [20] of the same binder?
Answer: 0.0018 s⁻¹

Question: What about the Kd [21] of the same binder?
Answer: 94.1 nM

Question: And the koff [21]?
Answer: 0.028 s⁻¹

B5: DH1058 mAb (antibody, V domains shown)
VH: QVQLVQSGGGVVQPGRSLRLSCAASGFNFGDFGMHWVRQAPGKGLEWVAVISYEGRNKNHADSVRGRFTISRDNSRNMLYLQMNSLRRGDTAVYYCAKENRDRNYDSWSASYSDYYYGMDVWGQGTTVTVSS
VL: DIVMTQSPSFLSASVGDRVTITCRASQGIDRYLAWYQQKPGSAPKLLIYAASTLQSGVPSRFSGSGSETDFTLTISSLQPDDFATYYCQQLSTYPTITFGQGTRLEIK
Question: Which Kd [22] does the source give for B5 here?
Answer: 0.3 nM

Question: What about the koff [22] of the same binder?
Answer: 0.00068 s⁻¹

Question: What about the Kd [23] of the same binder?
Answer: 0.1 nM

Question: What about the koff [23] of the same binder?
Answer: 0.00066 s⁻¹

Question: How did the Kd [1] turn out when B6 was run?
Answer: 0.6 nM

Question: What about the koff [1] of the same binder?
Answer: 0.0014 s⁻¹

Question: And the Kd [2]?
Answer: 4480 nM

Question: What about the koff [2] of the same binder?
Answer: 0.037 s⁻¹

Question: What about the Kd [3] of the same binder?
Answer: 176 nM

Question: And the koff [3]?
Answer: 0.0032 s⁻¹

Question: What about the Kd [4] of the same binder?
Answer: 404 nM

Question: What about the koff [4] of the same binder?
Answer: 0.018 s⁻¹

Question: What about the Kd [5] of the same binder?
Answer: 175 nM

Question: And the koff [5]?
Answer: 0.0015 s⁻¹

Question: And the Kd [6]?
Answer: 353 nM

Question: What about the koff [6] of the same binder?
Answer: 0.0091 s⁻¹

Question: What about the Kd [7] of the same binder?
Answer: 1.7 nM

Question: What about the koff [7] of the same binder?
Answer: 0.00037 s⁻¹

Question: And the Kd [8]?
Answer: 12.8 nM

Question: And the koff [8]?
Answer: 0.014 s⁻¹

Question: And the Kd [9]?
Answer: 48.9 nM

Question: And the koff [9]?
Answer: 0.026 s⁻¹
